Laboratory results as given in patent publication US20220315909.

How the values were obtained:
[1] = target: SEQ ID NO 17994
[2] = target: SEQ ID NO 17995
[3] = target: SEQ ID NO 17996
[4] = target: SEQ ID NO 17997
[5] = target: SEQ ID NO 17998
[6] = target: SEQ ID NO 17999
[7] = target: SEQ ID NO 18000
[8] = target: SEQ ID NO 18001
[9] = target: SEQ ID NO 18002
[10] = target: SEQ ID NO 18003
[11] = target: SEQ ID NOs: 17202-17993
[12] = target: SEQ ID NOs: 5-17201

B1: Recombinant Human Matriptase/ST14 Catalytic Domain (protein)
chain: not shown
[1]
  cleavage ratio (PAR) on peptide array, human MT-SP1 500 nM: showed higher cleavage ratios than the sequence shown as SEQ ID NO: 3 for both the cleavages by human uPA and human MT-SP1
[2]
  cleavage ratio (PAR) on peptide array, human MT-SP1 500 nM: showed higher cleavage ratios than the sequence shown as SEQ ID NO: 3 for both the cleavages by human uPA and human MT-SP1
[3]
  cleavage ratio (PAR) on peptide array, human MT-SP1 500 nM: showed higher cleavage ratios than the sequence shown as SEQ ID NO: 3 for both the cleavages by human uPA and human MT-SP1
[4]
  cleavage ratio (PAR) on peptide array, human MT-SP1 500 nM: showed higher cleavage ratios than the sequence shown as SEQ ID NO: 3 for both the cleavages by human uPA and human MT-SP1
[5]
  cleavage ratio (PAR) on peptide array, human MT-SP1 500 nM: showed higher cleavage ratios than the sequence shown as SEQ ID NO: 3 for both the cleavages by human uPA and human MT-SP1
[6]
  cleavage ratio (PAR) on peptide array, human MT-SP1 500 nM: showed higher cleavage ratios than the sequence shown as SEQ ID NO: 3 for both the cleavages by human uPA and human MT-SP1
[7]
  cleavage ratio (PAR) on peptide array, human MT-SP1 500 nM: showed higher cleavage ratios than the sequence shown as SEQ ID NO: 3 for both the cleavages by human uPA and human MT-SP1
[8]
  cleavage ratio (PAR) on peptide array, human MT-SP1 500 nM: showed higher cleavage ratios than the sequence shown as SEQ ID NO: 3 for both the cleavages by human uPA and human MT-SP1
[9]
  cleavage ratio (PAR) on peptide array, human MT-SP1 500 nM: showed higher cleavage ratios than the sequence shown as SEQ ID NO: 3 for both the cleavages by human uPA and human MT-SP1
[10]
  cleavage ratio (PAR) on peptide array, human MT-SP1 500 nM: showed higher cleavage ratios than the sequence shown as SEQ ID NO: 3 for both the cleavages by human uPA and human MT-SP1
[11]
  cleavage ratio (PAR) on peptide array, human MT-SP1 500 nM: showed higher cleavage ratios than the sequence shown as SEQ ID NO: 3 for both the cleavages by human uPA and human MT-SP1
[12]
  cleavage ratio (PAR) on peptide array, human MT-SP1 500 nM: showed higher cleavage ratios than the sequence shown as SEQ ID NO: 2 for both the cleavages by human uPA and human MT-SP1
